Assay results: patent US20230287125A1 (LEPU BIOPHARMA, published 2023)
Numbering of substitutions follows the chain as printed. Names and notes keep the numbering of the source. One block for each binder: values may come before it.

Columns and labels:
[1] = molecular target: PD-L1 on PD-L1 target cells (Homo sapiens (Human), UniProt Q9NZQ7 19-290); assay: cell-based or functional assay
[2] = molecular target: T1, human PD-L1 over-expressed on CHOK1 cells (human, UniProt Q9NZQ7 19-290); assay: flow cytometry (MFI) on PDL1-CHOK1 cells; upper left panel
T1 construct: whole, on cells; also called PDL1-CHOK1 cells
Description: (§1) To evaluate the antigen binding property, the humanized antibodies were analyzed for their binding to PD-L1 overexpressed on mammalian cells by FACS. Briefly, PDL1-CHOK1 cells were firstly incubated with 3-fold serious diluted humanized antibodies starting at 15 μg/ml at 4° C. for 40 mins. After washed by PBS, the Alexa Fluor® 647 AffiniPure Goat Anti-Human IgG (H+L) antibody was added to each well and incubated at 4° C. for 30 mins. The MFI of Alexa Fluor® 647 was evaluated by FACSCanto.

[3] = molecular target: T2, human PD-L1-his tag protein (human, UniProt Q9NZQ7 19-238); assay: SPR (Biacore T200), mAb captured on Protein A chip, PD-L1-his injected
T2 construct: also called human PD-L1-His protein; recombinant PD-L1 protein; not shown: his tag
Description: The binding of the humanized antibodies to recombinant PD-L1 protein (human PD-L1-his tag) was tested by Biacore using a capture method. […] A serial dilution of human PD-L1-his tag protein was injected over captured antibody for 2 mins at a flow rate of 30 μl/min. The antigen was allowed to dissociate for 1500 s. All the experiment were carried out on a Biacore T200.

[4] = molecular target: T3, human PD-L1-Fc protein (human, UniProt Q9NZQ7 19-238); assay: ELISA, antibody titrated on coated human PD-L1-Fc, OD 450nm; upper left panel
T3 construct: coating antigen of the ELISAs; also called rhPD-L1-Fc; not shown: Fc
Description: (§2) To evaluate antigen binding activity, the humanized antibodies were subjected to ELISA test. Briefly, microtiter plates were coated with human PD-L1-Fc protein at 0.5 μg/ml in PBS, 100 μl/well at 4° C. overnight, then blocked with 200 μl/well of 1% BSA. Three-fold dilutions of humanized antibodies starting from 10 μg/ml were added to each well and incubated for 1 hour at 37° C. The plates were washed with PBS/Tween and then incubated with mouse-anti-human IgG Fab antibody conjugated with Horse Radish Peroxidase (HRP) for 1 hour at 37° C. After washing, the plates were developed with TMB substrate and analyzed by spectrophotometer at OD 450 nm.

[5] = molecular target: T3, human PD-L1-Fc protein; assay: receptor blocking ELISA: coated human PD-L1-Fc, blocked ligand biotin-labeled human PD-1-Fc (Bio-PD1), OD 450nm; upper left panel
Description: (§3) Briefly, microtiter plates were coated with human PD-L1-Fc protein at 0.5 μg/ml in PBS, 100 μl/well at 4° C. overnight, then blocked with 150 μl/well of 1% BSA at 37° C. for 2 hours. […] The plates were washed with PBS/Tween and then incubated with Streptavidin-HRP for 10 mins at 37° C. After washing, the plates were developed with TMB substrate and analyzed by spectrophotometer at OD 450 nm.

[6] = molecular target: T3, human PD-L1-Fc protein; assay: receptor blocking ELISA: coated human PD-L1-Fc, blocked ligand biotin-labeled human CD80-Fc (Bio-CD80), OD 450nm; upper left panel
Description: as §3

[7] = molecular target: T2, human PD-L1-his tag protein; assay: SPR (Biacore), affinity ranking, PDL1-His
[8] = molecular target: T1, human PD-L1 over-expressed on CHOK1 …; assay: flow cytometry (MFI) on PDL1-CHOK1 cells; upper right panel
Description: as §1

[9] = molecular target: T3, human PD-L1-Fc protein; assay: ELISA, antibody titrated on coated human PD-L1-Fc, OD 450nm; lower right panel
Description: as §2

[10] = molecular target: T1, human PD-L1 over-expressed on CHOK1 …; assay: flow cytometry (MFI) on PDL1-CHOK1 cells; lower right panel
Description: as §1

[11] = molecular target: T3, human PD-L1-Fc protein; assay: ELISA, antibody titrated on coated human PD-L1-Fc, OD 450nm; lower left panel
Description: as §2

[12] = molecular target: T3, human PD-L1-Fc protein; assay: ELISA, antibody titrated on coated human PD-L1-Fc, OD 450nm; lower left panel; the table row is headed 'IC50' on the sheet although the curves rise
Description: as §2

T3 sequence (Q9NZQ7 19-238 limits assumed): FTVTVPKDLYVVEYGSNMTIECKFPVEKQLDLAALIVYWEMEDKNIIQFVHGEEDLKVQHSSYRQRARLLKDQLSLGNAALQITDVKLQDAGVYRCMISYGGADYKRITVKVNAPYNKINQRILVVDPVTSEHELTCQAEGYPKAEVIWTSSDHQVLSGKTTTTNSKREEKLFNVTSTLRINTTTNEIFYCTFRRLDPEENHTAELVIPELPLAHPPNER
T2 sequence (Q9NZQ7 19-238 limits assumed): as above
Sequence of PD-L1 on PD-L1 target cells (Q9NZQ7 19-290 limits assumed): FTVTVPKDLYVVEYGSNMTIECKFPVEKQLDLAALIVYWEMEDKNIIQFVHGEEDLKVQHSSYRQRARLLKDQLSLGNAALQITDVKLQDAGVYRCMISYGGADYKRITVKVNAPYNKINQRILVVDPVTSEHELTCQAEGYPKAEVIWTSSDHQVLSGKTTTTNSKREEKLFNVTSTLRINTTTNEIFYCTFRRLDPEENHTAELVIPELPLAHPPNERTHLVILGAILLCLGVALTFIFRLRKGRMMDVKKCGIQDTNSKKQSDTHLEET
T1 sequence (Q9NZQ7 19-290): as the sequence (Q9NZQ7 19-290 limits assumed) above

B1: 47C6A3, Human IgG1 (N297A)-Fc (antibody, V domains shown)
VH: DVQLQESGPGLVKPSQSLSLTCTVTGYSITSDYAWNWIRQFPGNKLEWMGYIIYSGSTSYNPSLKSRISITRDTSKNQFFLQLNSVTTEDTATYYCARSTMIATNWFAYWGQGTLVTVSA
VL: DIVMTQSHKFMSTSVVDRVSITCKASQDVSLAVAWYQQKPGQSPKLLIYWASTRHTGVPDRFTGSGSGTDFALTISSVQAEDLALYYCQQHYITPWTFGGGTKLEIK
EC50, NFAT-RE-mediated luminescence, PD1 effector cells co-cultured with PD-L1 target cells [1]: 0.15 nM

B2: Hu67F3G7-22, Human IgG1 (N297A)-Fc (antibody, V domains shown)
VH: EVQLVQSGAEVKKPGASVKVSCKASGYTFTDFWVSWVRQAPGQGLEWMGEIYPNSGVSRYNEKFKGRVTMTVDKSISTAYMELSRLRSDDTAVYYCTKYFGYTYWFGYWGQGTLVTVSS
VL: DIQMTQSPSSLSASVGDRVTITCRASKSVSTYMHWYQQKPGKQPKLLIYSASHLESGVPSRFSGSGSGTDFTLTISSLQPEDFATYYCQQSNELPVTFGGGTKVEIK
EC50, NFAT-RE-mediated luminescence, PD1 effector cells co-cultured with PD-L1 target cells [1]: 0.103 nM

B3: Hu89C10H8-7, Human IgG1 (N297A)-Fc (antibody, V domains shown)
VH: EVQLVESGGGLVKPGGSLRLSCAASGFTFSNYWMTWIRQAPGKGLEWVASITNTGSSTFYPDSVKGRFTISRDNAKNSLYLQMNSLRAEDTAVYYCTRDTTIAPFDYWGQGTMVTVSS
VL: DIQMTQSPSSLSASVGDRVTITCKASQNLNEYLNWYQQKPGKAPKRLIYKTNTLQAGIPSRFSGSGSGTDYTLTISSLQPEDFATYYCSQYNSGNTFGQGTKLEIK
EC50, NFAT-RE-mediated luminescence, PD1 effector cells co-cultured with PD-L1 target cells [1]: 0.214 nM

B4: Hu47C6A3-1 (antibody, V domains shown)
VH: QVQLQESGPGLVKPSETLSLTCTVSGYSITSDYAWNWIRQPPGKGLEWIGYIIYSGSTSYNPSLKSRVTISVDTSKNQFSLKLSSVTAADTAVYYCARSTMIATNWFAYWGQGTLVTVSS
VL: DIQMTQSPSSLSASVGDRVTITCKASQDVSLAVAWYQQKPGKAPKLLIYWASTRHTGVPSRFSGSGSGTDFTLTISSLQPEDFATYYCQQHYITPWTFGGGTKVEIK
notes: humanized
EC50 [2]: 0.291 nM
Kd [3]: 0.48 nM
koff [3]: 0.000593 s⁻¹
kon [3]: 1.24e+06 M⁻¹ s⁻¹
EC50 [4]: 0.00963 µg/mL
IC50 [5]: 0.0349 µg/mL
IC50 [6]: 0.141 µg/mL

B7: Hu89C10H8-4 (antibody, V domains shown)
VH: B3 VH with N77S
VL: B3 VL with I58V
notes: humanized
Kd [7]: 0.0954 nM
koff [7]: 5.94e-05 s⁻¹
kon [7]: 623000 M⁻¹ s⁻¹
EC50 [10]: 0.127 nM
Kd [3]: 0.0962 nM
koff [3]: 5.41e-05 s⁻¹
kon [3]: 562000 M⁻¹ s⁻¹
EC50 [4]: 0.00683 µg/mL
IC50 [5]: 0.111 µg/mL
IC50 [6]: 0.353 µg/mL

B8: Hu89C10H8-13 (antibody, V domains shown)
VH: B3 VH with I37V, T97A
VL: B3 VL with P40L, K42E, T69I, Y87F
notes: humanized
Kd [7]: 0.561 nM
koff [7]: 0.000433 s⁻¹
kon [7]: 764000 M⁻¹ s⁻¹
EC50 [11]: 0.00994 µg/mL

B10: Hu89C10H8-15 (antibody, V domains shown)
VH: B3 VH
VL: B3 VL with P40L, K42E, T69I, Y87F
notes: humanized
Kd [7]: 0.0918 nM
koff [7]: 7.17e-05 s⁻¹
kon [7]: 781000 M⁻¹ s⁻¹
EC50 [11]: 0.0088 µg/mL

B11: Hu89C10H8-16 (antibody, V domains shown)
VH: B3 VH with N77S
VL: B3 VL with P40L, K42E, T69I, Y87F
notes: humanized
Kd [7]: 0.098 nM
koff [7]: 6.54e-05 s⁻¹
kon [7]: 667000 M⁻¹ s⁻¹
EC50 [11]: 0.00757 µg/mL

B13: Hu67F3G7-19 (antibody, V domains shown)
VH: B2 VH with T28I, M48I, T97A, K98R
VL: DTVLTQSPSLSASVGDRVTITCRASKSVSTYMHWYQQKPGKQPKLLIYSASHLESGVPSRFSGSGSGTDFTLTISSLQPEDFATYYCQQSNELPVTFGGGTKVEIK
notes: humanized
Kd [7]: 0.0545 nM
koff [7]: 0.000107 s⁻¹
kon [7]: 1.97e+06 M⁻¹ s⁻¹
EC50 [9]: 0.0132 µg/mL

The remaining lines, values ahead:

Kd [7]: 0.0379 nM
koff [7]: 9.75e-05 s⁻¹
kon [7]: 2.57e+06 M⁻¹ s⁻¹
EC50 [8]: 0.108 nM
Kd [3]: 0.0367 nM
koff [3]: 7.03e-05 s⁻¹
kon [3]: 1.92e+06 M⁻¹ s⁻¹
EC50 [4]: 0.0132 µg/mL
IC50 [5]: 0.109 µg/mL
IC50 [6]: 0.282 µg/mL
B5: Hu67F3G7-2 (antibody, V domains shown)
VH: B2 VH
VL: B2 VL with Q43A
notes: humanized

Kd [7]: 0.156 nM
koff [7]: 8.43e-05 s⁻¹
kon [7]: 540000 M⁻¹ s⁻¹
EC50 [9]: 0.00919 µg/mL
B6: Hu67F3G7-21 (antibody, V domains shown)
VH: B2 VH with T97A, K98R
VL: B2 VL
notes: humanized

Kd [7]: 0.137 nM
koff [7]: 9.75e-05 s⁻¹
kon [7]: 712000 M⁻¹ s⁻¹
EC50 [11]: 0.00983 µg/mL
B9: Hu89C10H8-14 (antibody, V domains shown)
VH: B3 VH with I37V
VL: B3 VL with P40L, K42E, T69I, Y87F
notes: humanized

Kd [7]: 0.037 nM
koff [7]: 0.000101 s⁻¹
kon [7]: 2.74e+06 M⁻¹ s⁻¹
EC50 [12]: 0.0136 µg/mL
B12: Hu67F3G7-17 (antibody, V domains shown)
VH: B2 VH
VL: B13 VL
notes: humanized

Kd [7]: 0.0347 nM
koff [7]: 9.36e-05 s⁻¹
kon [7]: 2.7e+06 M⁻¹ s⁻¹
EC50 [9]: 0.0146 µg/mL
B14: Hu67F3G7-20 (antibody, V domains shown)
VH: B2 VH with T28I, Q43K, M48I
VL: B13 VL
notes: humanized
